According to patent US20070003561A1 (published 2007):

Legend:
[1] = target: T1, Streptococcus pneumoniae surface adhesin A (PsaA) protein (Streptococcus pneumoniae, UniProt P0A4G2 20-309); assay: SPR (Biacore 3000), PsaA amine-coupled on CM5 chip, antibody in flow, 1:1 Langmuir fit
T1 construct: also called Pneumococcal surface adhesin A; recombinant PsaA
T1 sequence: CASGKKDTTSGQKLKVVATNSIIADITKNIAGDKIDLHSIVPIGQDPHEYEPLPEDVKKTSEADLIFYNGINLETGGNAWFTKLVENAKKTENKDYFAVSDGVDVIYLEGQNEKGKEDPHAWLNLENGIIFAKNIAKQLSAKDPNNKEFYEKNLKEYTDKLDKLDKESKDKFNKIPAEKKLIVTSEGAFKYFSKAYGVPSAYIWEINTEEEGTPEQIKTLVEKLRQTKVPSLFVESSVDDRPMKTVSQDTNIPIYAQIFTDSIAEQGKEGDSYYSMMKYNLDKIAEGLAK

[2] = target: T1, Streptococcus pneumoniae surface …; assay: whole-bacteria ELISA, strain R6, Ab 0.5 µg/ml
[3] = target: T1, Streptococcus pneumoniae surface …; assay: whole-bacteria ELISA, strain 8, Ab 0.5 µg/ml
[4] = target: T1, Streptococcus pneumoniae surface …; assay: whole-bacteria ELISA, strain R6, Ab 0.5 ng/ml
[5] = target: T1, Streptococcus pneumoniae surface …; assay: whole-bacteria ELISA, strain R6, Ab 5 ng/ml
[6] = target: T1, Streptococcus pneumoniae surface …; assay: whole-bacteria ELISA, strain R6, Ab 5 µg/ml
[7] = target: T1, Streptococcus pneumoniae surface …; assay: whole-bacteria ELISA, strain 6B, Ab 0.5 µg/ml
[8] = target: T1, Streptococcus pneumoniae surface …; assay: whole-bacteria ELISA, strain R6, Ab 50 ng/ml
[9] = target: T1, Streptococcus pneumoniae surface …; assay: whole-bacteria ELISA, strain 7F, Ab 0.5 µg/ml
[10] = target: T1, Streptococcus pneumoniae surface …; assay: whole-bacteria ELISA, strain D39, Ab 0.5 µg/ml
[11] = target: T1, Streptococcus pneumoniae surface …; assay: whole-bacteria ELISA, strain 3, Ab 0.5 µg/ml
[12] = target: T1, Streptococcus pneumoniae surface …; assay: whole-bacteria ELISA, strain 14, Ab 0.5 µg/ml
[13] = target: T1, Streptococcus pneumoniae surface …; assay: whole-bacteria ELISA, strain 23F, Ab 0.5 µg/ml
[14] = target: T1, Streptococcus pneumoniae surface …; assay: whole-bacteria ELISA, strain 9V, Ab 0.5 µg/ml
[15] = target: T1, Streptococcus pneumoniae surface …; assay: whole-bacteria ELISA, strain 4, Ab 0.5 µg/ml
[16] = target: T1, Streptococcus pneumoniae surface …; assay: whole-bacteria ELISA, strain 12F, Ab 0.5 µg/ml
[17] = target: T1, Streptococcus pneumoniae surface …; assay: whole-bacteria ELISA, strain 1, Ab 0.5 µg/ml
[18] = target: T2, fusion protein consisting of soluble CD64 linked to the Fc portion of human IgM (human, UniProt P12314 16-292; P01871 106-453, limits assumed); assay: bispecific sandwich ELISA: coated recombinant PsaA, detection with soluble CD64-IgM fusion and AP anti-human IgM
T2 construct: Used as a culture supernatant; also called soluble CD64-IgM fusion protein
T2 sequence (P12314 other isoform, or with tags, fused parts or gaps limits assumed): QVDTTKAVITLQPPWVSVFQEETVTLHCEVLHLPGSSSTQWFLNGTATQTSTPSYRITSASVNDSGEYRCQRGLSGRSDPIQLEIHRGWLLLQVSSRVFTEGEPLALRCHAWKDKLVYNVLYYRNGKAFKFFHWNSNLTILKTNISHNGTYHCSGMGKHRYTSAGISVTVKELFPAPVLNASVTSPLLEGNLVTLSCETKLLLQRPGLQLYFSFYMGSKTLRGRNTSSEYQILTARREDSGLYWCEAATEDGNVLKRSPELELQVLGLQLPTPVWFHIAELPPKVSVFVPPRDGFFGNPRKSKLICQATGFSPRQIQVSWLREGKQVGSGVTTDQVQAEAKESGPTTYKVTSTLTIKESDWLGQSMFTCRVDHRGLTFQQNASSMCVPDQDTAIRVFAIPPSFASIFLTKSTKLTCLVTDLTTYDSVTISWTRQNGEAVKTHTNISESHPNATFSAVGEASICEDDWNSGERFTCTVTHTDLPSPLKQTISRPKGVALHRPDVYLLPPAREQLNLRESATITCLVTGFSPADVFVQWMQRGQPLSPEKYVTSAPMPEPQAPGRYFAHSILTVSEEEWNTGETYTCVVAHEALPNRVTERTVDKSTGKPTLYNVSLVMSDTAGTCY

B1: Anti-PsaA 1-15E5 (antibody, V domains shown)
VH: EVQLVESGGGLVQPGGSLRLSCAASGFTFNIFGMSWVRQAPGKGLEWVANIKQDGSEKYYVDSVKGRFTISRDNAKNSLYLQMNSLRAEDTAVYYCARDRFYYGSGSYYYYYNGMDVWGQGTTVTVSS
VL: EIVLTQSPATLSLSPGERATLSCRASQSVSSYLAWYQQKPGQAPRLLIYDASNRATGIPARFSGSGSGTDFTLTISSLEPEDFAVYYCQQRSNWPLTFGGGTKVEI
notes: Fully human monoclonal antibody (HuMAb-Mouse), kappa light chain; also called clone 1-15E5.2.1; 1-1-15E5
Kd [1]: 0.118 nM
koff [1]: 6.72e-06 s⁻¹
kon [1]: 57100 M⁻¹ s⁻¹

B2: Anti-PsaA 7-1G9 (antibody, V domains shown)
VH: QVRLQQWGAGLLKPSETLSLTCAVFGGSFSGFSWSWIRQTPGKGLEWIGEIDYRGSTNYNPSLKSRVTILRDTSRSQFSLKLSSVTAADSAVFYCARGGPRFDYWGQGTLVTVSS
VL: DIQMTQSPSSLSASVGDRVTITCRASQGISSWLAWYQQKPEKAPESLIYVASSLQSGVPSRFSGSGSGTDFTLTISSLQPEDFATYYCQQYNSYPPTFGQGTKVEIK
notes: Fully human monoclonal antibody (HuMAb-Mouse), kappa light chain; also called clone 7-1G9.1
ELISA (0.5 µg/ml) (corrected) [2]: 1.38
R6 ELISA (corrected) [2]: 1.68
ELISA (0.5 µg/ml) (corrected) [3]: 1.5
R6 ELISA (corrected) [4]: 0.31
R6 ELISA (corrected) [5]: 0.54
R6 ELISA (corrected) [6]: 1.36
ELISA (0.5 µg/ml) (corrected) [7]: 0.4
R6 ELISA (corrected) [8]: 1.78
ELISA (0.5 µg/ml) (corrected) [9]: 1.06
ELISA (0.5 µg/ml) (corrected) [10]: 0.68
ELISA (0.5 µg/ml) (corrected) [11]: 1.24
ELISA (0.5 µg/ml) (corrected) [12]: 1.32
ELISA (0.5 µg/ml) (corrected) [13]: 0.36
Kd [1]: 0.0634 nM
koff [1]: 2.87e-05 s⁻¹
kon [1]: 435000 M⁻¹ s⁻¹
ELISA (0.5 µg/ml) (corrected) [14]: > 3
ELISA (0.5 µg/ml) (corrected) [15]: 0.33
ELISA (0.5 µg/ml) (corrected) [16]: 1.46
ELISA (0.5 µg/ml) (corrected) [17]: 0.35

B3: Anti-PsaA 5-9A7 (antibody, V domains shown)
VH: EVQLVESGGGLVQPGGSLRLSCAASGFTFSSFWMSWVRQAPGKGLEWVANIKQDGSEKFYVDSVKGRFTISRDNAKNSLYLQMNSLRAEDTAVYYCARDRITMVRPYYYFYNGLDVWGQGTTVTVSS
VL: EIVLTQSPATLSLSPGERATLSCRASQSVSSYLAWYQQKPGQAPRLLIYDASNRATGIPARFSGSGSGTDFTLTISSLEPEDFAVYYCQQRSNWPPFTFGPGTKVDIK
notes: Fully human monoclonal antibody (HuMAb-Mouse), kappa light chain; also called clone 5-9A7
ELISA (0.5 µg/ml) (corrected) [2]: 1.39
R6 ELISA (corrected) [2]: 1.65
ELISA (0.5 µg/ml) (corrected) [3]: 1.52
R6 ELISA (corrected) [4]: 0.26
R6 ELISA (corrected) [5]: 0.41
R6 ELISA (corrected) [6]: 1.39
ELISA (0.5 µg/ml) (corrected) [7]: 0.39
R6 ELISA (corrected) [8]: 1.32
ELISA (0.5 µg/ml) (corrected) [9]: 1.17
ELISA (0.5 µg/ml) (corrected) [10]: 0.66
ELISA (0.5 µg/ml) (corrected) [11]: 1.31
ELISA (0.5 µg/ml) (corrected) [12]: 1.42
ELISA (0.5 µg/ml) (corrected) [13]: 0.37
Kd [1]: 0.0374 nM
koff [1]: 1.41e-05 s⁻¹
kon [1]: 377000 M⁻¹ s⁻¹
ELISA (0.5 µg/ml) (corrected) [14]: > 3
ELISA (0.5 µg/ml) (corrected) [15]: 0.33
ELISA (0.5 µg/ml) (corrected) [16]: 1.51
ELISA (0.5 µg/ml) (corrected) [17]: 0.4

B4: F(ab′)2 fragment of the anti-PsaA Ab 5-9A7 (other)
VH: B3 VH
VL: B3 VL
notes: F(ab′)2 made by pepsin digestion; also called anti-PsaA F(ab′)2; 5-9A7 F(ab′)2
binding result [18]: no binding (tested: 1 µg/ml)
